Data on two substances can be found in paper PMC5817926.

The koff is the rate constant with which the complex falls apart. Usually kon stands for the second-order rate constant of association. Usually Kd stands for the concentration at which binding is half-saturated.

The target of assay [1] is ubiquitin polyprotein composed of nine identical repeats (Ubi)9. Briefly: single-molecule force-clamp spectroscopy (AFM) with a kinetic model fit; (Ubi)9 tethered between gold and cantilever, 5 uM chaperone in solution (DnaK with ADP); PBS + 5 mM MgCl2 pH 7.4, 22 C; binding to ubiquitin mechanically unfolded and held extended at 120 pN; constants from a multiparametric fit of ordinary differential equations to the refolding yields.

For assay [2], the target named is ubiquitin polyprotein composed of nine identical repeats (Ubi)9 (UniProt P0CG48).
Assay [3] has as its target (I27)8 polyprotein of the I27th Ig domain of titin. As to the kind of experiment: single-molecule force-clamp spectroscopy (AFM); collapsed (molten globule-like) states: polyprotein tethered between a gold surface and the cantilever tip, unfolded, force quenched for tq 0.5 to 15 s with 5 uM chaperone (DnaK with ADP); refolding yield read in a test pulse; constants from a multiparametric fit of a kinetic model; PBS + 5 mM MgCl2, pH 7.4, 22 C.

Assay [4] concerns the target ubiquitin polyprotein composed of nine identical repeats (Ubi)9 (UniProt P0CG48). The source holds these as a separate data set.
In assay [5] the target is ubiquitin polyprotein composed of nine identical repeats (Ubi)9. As to the kind of experiment: single-molecule force-clamp spectroscopy (AFM) with a kinetic model fit; (Ubi)9 tethered between gold and cantilever, 5 uM DnaJ in solution; PBS + 5 mM MgCl2 pH 7.4, 22 C; binding to ubiquitin held extended at 170 pN for text 0-30 s, quench 5 s; kon and koff of the extended state as free parameters of the kinetic model.

Assay [6] addresses (I27)8 polyprotein of the I27th Ig domain of titin. As to the kind of experiment: single-molecule force-clamp spectroscopy (AFM) with a kinetic model fit; polyprotein tethered between gold and cantilever, 5 uM chaperone in solution (DnaK with ADP); PBS + 5 mM MgCl2 pH 7.4, 22 C; binding to the collapsed state during the quench at 0 pN (tq 0.5-15 s); constants from a multiparametric fit of the kinetic model to the refolding kinetics.

The target of assay [7] is ubiquitin polyprotein composed of nine identical repeats (Ubi)9 (UniProt P0CG48). The source holds these as a separate data set.
Assay [8] has the same target. As to the kind of experiment: single-molecule force-clamp spectroscopy (AFM); extended state: polyprotein tethered between a gold surface and the cantilever tip, unfolded and held extended at high force (120 pN; 170 pN for the constants of the extended conformation) for text 1 to 30 s with 5 uM chaperone (DnaK with ADP); refolding yield read in a test pulse after tq = 5 s; constants from a multiparametric fit of a kinetic model; PBS + 5 mM MgCl2, pH 7.4, 22 C.

Assay [9] has the same target. The source holds these as a separate data set.
The target is the same in assay [10]. Briefly: single-molecule force-clamp spectroscopy (AFM); collapsed (molten globule-like) states: polyprotein tethered between a gold surface and the cantilever tip, unfolded, force quenched for tq 0.5 to 15 s with 5 uM chaperone (DnaK with ADP); refolding yield read in a test pulse; constants from a multiparametric fit of a kinetic model; PBS + 5 mM MgCl2, pH 7.4, 22 C.

The target in assay [11] is (I27)8 polyprotein of the I27th Ig domain of titin.

Sequence of DnaK (Hsp70) (P0A6Y8 whole entry): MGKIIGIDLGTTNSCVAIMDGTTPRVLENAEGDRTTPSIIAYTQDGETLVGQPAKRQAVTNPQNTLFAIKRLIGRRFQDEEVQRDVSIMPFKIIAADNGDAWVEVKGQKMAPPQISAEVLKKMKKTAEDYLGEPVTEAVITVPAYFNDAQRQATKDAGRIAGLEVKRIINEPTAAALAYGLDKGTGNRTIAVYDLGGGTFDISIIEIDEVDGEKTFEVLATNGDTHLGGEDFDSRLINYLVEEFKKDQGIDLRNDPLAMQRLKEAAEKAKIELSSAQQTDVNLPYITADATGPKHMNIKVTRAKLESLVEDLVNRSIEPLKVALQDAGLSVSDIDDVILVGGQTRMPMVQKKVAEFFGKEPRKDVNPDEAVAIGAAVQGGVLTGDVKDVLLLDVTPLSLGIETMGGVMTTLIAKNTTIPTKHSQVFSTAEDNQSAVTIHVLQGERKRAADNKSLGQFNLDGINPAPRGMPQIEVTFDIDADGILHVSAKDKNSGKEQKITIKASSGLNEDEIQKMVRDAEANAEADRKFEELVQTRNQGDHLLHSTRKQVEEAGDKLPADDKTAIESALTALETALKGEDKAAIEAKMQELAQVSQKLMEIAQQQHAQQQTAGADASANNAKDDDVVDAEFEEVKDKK
Sequence of DnaJ (Hsp40) (P08622 whole entry): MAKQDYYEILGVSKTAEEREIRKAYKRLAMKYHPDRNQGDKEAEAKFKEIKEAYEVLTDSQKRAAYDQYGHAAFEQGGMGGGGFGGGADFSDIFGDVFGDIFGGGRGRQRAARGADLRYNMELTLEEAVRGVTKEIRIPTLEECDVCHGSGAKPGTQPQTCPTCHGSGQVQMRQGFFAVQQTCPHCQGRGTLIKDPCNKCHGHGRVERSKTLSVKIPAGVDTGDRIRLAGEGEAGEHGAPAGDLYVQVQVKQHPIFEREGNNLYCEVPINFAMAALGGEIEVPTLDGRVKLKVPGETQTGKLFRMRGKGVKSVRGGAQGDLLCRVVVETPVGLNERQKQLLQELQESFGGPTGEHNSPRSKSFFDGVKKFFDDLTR

As to “DnaJ (Hsp40) (from UniProt P08622 1-376) (natural protein)”, the koff in assay [1] is 0.0492 s⁻¹; in assay [6] it was 0.0472 s⁻¹. For the same substance, the kon in assay [1] came out at 29900 M⁻¹ s⁻¹; in [3], 250000 M⁻¹ s⁻¹; in assay [5], 48700 M⁻¹ s⁻¹. In addition, the rate of the exponential decrease of the refolding efficiency of ubiquitin with the time held extended (text 1 to 30 s, tq = 5 s) with 5 μM DnaJ in assay [2] came out at 0.27 s⁻¹. The results for the Kd in assay [3] and in [8] were 330 nM and 940 nM, respectively. This substance showed a refolding percentage of ubiquitin after 15 s stretched at 50 to 300 pN with DnaJ, tq = 5 s (10% at 150 to 170 pN, ~30% at 300 pN, ~50% at 50 pN) in assay [4] of 50%. This substance also displayed a plateau of the refolding yield of ubiquitin in force-quench trajectories (tq 0.5 to 15 s) with 5 μM DnaJ (~75% without DnaJ) in [7] of 30%.

In assay [9], “DnaK (Hsp70) (from UniProt P0A6Y8 1-638) (natural protein)” displayed a plateau of the refolding yield of ubiquitin in force-quench trajectories (tq 0.5 to 15 s) with 5 μM DnaK(ADP) of 30%. The dissociation constant (Kd) in [3] came to 270 nM; in assay [10] it was 140 nM. Further, in assay [6], the off-rate constant (koff) worked out at 0.029 s⁻¹. The substance further gave a refolding yield of I27 with DnaK(ADP) in assay [11] of 50%.
